The record followed here is patent US20200123231A1 (RESEARCH FOUNDATION OF THE CITY UNIVERSITY OF NEW YORK, published 2020).

This series deals with the molecule itself. Nature of the series: TEM, negative stain, TES buffer pH 7, 24 h at 37 C; non-specific self-association (no fibrils). On the procedure:
FIG. 5A and FIG. 5B are TEM images of the non-specific aggregates of Col108r. The fibril formation was initiated by transferring Col108r in 5 mM Acetic Acid (pH 4.5) to TES buffer (pH 7) and incubated for 24 hr at 37° C. The grids were stained with 1% sodium phosphotungstate; magnification factor 10,000; the scale bar is 200 nm. The two images were taken for two different preparations under identical treatments.

B1: peptide Col108r (Col-domain, randomized Col-domain and reversed Col-domain units) (peptide)
chain: GPCCGPPGPPGPPGPPGERGPPGPQGARGLPGAPGQMGPRGLPGERGRPGAPGPAGARGEPGAPGSKGDTGAKGEPGPVGVQGPPGPAGEEGKRGARGEPGPTGPAGPKGSPGEAGRPGEAGLPGPPGPPGPPGPPGMQGLPGPRGAPGRAGPEGRAGRPGPAGLPGEQGRAGRPGPPGAEGAEGKPGAPGSPGPRGLPGPAGDTGPEGQVGARGPKGEPGTPGRAGEPGEPGVPGKAGPKGESGPPGPPGPPGPPGREGPPGQPGRAGPLGPAGMQGRPGPLGREGPRGPAGAPGRAGPEGPAGKSGTDGKAGPEGVPGQVGPPGAPGEEGRKGRAGPEGTPGAPGKPGPSGAEGPRGAEGPLGPPGPPGPPGPPGPCCGYIPEAPRDGQAYVRKDGEWVLLSTFL
notes: Forms a collagen triple helix (trimer) with Cys-knots and foldon
In the case of B1, the binding result is recorded as “binds”.
